The data set deals with the molecule itself. The experiment in a line: SEC-MALS.

B1: MHV S ectodomain trimer (murine hepatitis virus spike glycoprotein ectodomain, R717S, fused to a GCN4 trimerization motif) (domain or fragment)
chain: YIGDFRCIQLVNSNGANVSAPSISTETVEVSQGLGTYYVLDRVYLNATLLLTGYYPVDGSKFRNLALRGTNSVSLSWFQPPYLNQFNDGIFAKVQNLKTSTPSGATAYFPTIVIGSLFGYTSYTVVIEPYNGVIMASVCQYTICQLPYTDCKPNTNGNKLIGFWHTDVKPPICVLKRNFTLNVNADAFYFHFYQHGGTFYAYYADKPSATTFLFSVYIGDILTQYYVLPFICNPTAGSTFAPRYWVTPLVKRQYLFNFNQKGVITSAVDCASSYTSEIKCKTQSMLPSTGVYELSGYTVQPVGVVYRRVANLPACNIEEWLTARSVPSPLNWERKTFQNCNFNLSSLLRYVQAESLFCNNIDASKVYGRCFGSISVDKFAVPRSRQVDLQLGNSGFLQTANYKIDTAATSCQLHYTLPKNNVTINNHNPSSWNRRYGFNDAGVFGKNQHDVVYAQQCFTVRSSYCPCAQPDIVSPCTTQTKPKSAFVNVGDHCEGLGVLEDNCGNADPHKGCICANNSFIGWSHDTCLVNDRCQIFANILLNGINSGTTCSTDLQLPNTEVVTGICVKYDLYGITGQGVFKEVKADYYNSWQTLLYDVNGNLNGFRDLTTNKTYTIRSCYSGRVSAAFHKDAPEPALLYRNINCSYVFSNNISREENPLNYFDSYLGCVVNADNRTDEALPNCDLRMGAGLCVDYSKSRRAHSSVSTGYRLTTFEPYTPMLVNDSVQSVDGLYEMQIPTNFTIGHHEEFIQTRSPKVTIDCAAFVCGDNTACRQQLVEYGSFCVNVNAILNEVNNLLDNMQLQVASALMQGVTISSRLPDGISGPIDDINFSPLLGCIGSTCAEDGNGPSAIRGRSAIEDLLFDKVKLSDVGFVEAYNNCTGGQEVRDLLCVQSFNGIKVLPPVLSESQISGYTTGATAAAMFPPWSAAAGVPFSLSVQYRINGLGVTMNVLSENQKMIASAFNNALGAIQDGFDATNSALGKIQSVVNANAEALNNLLNQLSNRFGAISASLQEILTRLEAVEAKAQIDRLINGRLTALNAYISKQLSDSTLIKVSAAQAIEKVNECVKSQTTRINFCGNGNHILSLVQNAPYGLYFIHFSYVPISFTTANVSPGLCISGDRGLAPKAGYFVQDDGEWKFTGSSYYYPEPITDKNSVIMSSCAVNYTKAPEVFLNTSIPNPPDFKEELDKWFKNQTSIAPDLSLDFEKLNVTLLDLIKRMKQIEDKIEEIESKQKKIENEIARIKKIKLVPRGSLE
The stoichiometry N is a count of units in the complex or per binding partner. Turning to B1, the “stoichiometry N” value came out at 3.
